Laboratory results as given in the supplement of paper PMC10567573.

B1: CLK3 (parent)
chain: FGEDYYGPSRSRHRRRSRERGPYR
B2: SCNN1D (parent)
chain: FLGHHSFSVRPGTEATISIREDEV

Variants of: B1
Experiment: protein stability index of a GFP-peptide fusion (GPS, HEK-293T) (PSI 1-6); higher = more stable
Conditions: c terminus: a fixed tail appended
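Note: lentivirally expressed fusions sorted by FACS into six bins by GFP to DsRed ratio, PSI derived from sequencing read proportions per bin multiplied by bin number.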

Variant	protein stability index
Y23C	2.47
Y23P	2.61
Y23E	2.35
Y23V	3.15
Y23L	2.16
Y23H	2.38
Y23M	2.48
Y23T	2.27
Y23N	2.67
Y23G	2.43
Y23W	2.46
Y23R	2.11
Y23D	2.89
Y23K	2.3
Y23Q	3.46
Y23F	1.65
Y23S	2.62
Y23I	2.31
Y23A	2.19
R15Q	1.98
R15W	2.11
R15A	2.18
R15D	2.34
R15V	2.1
R15S	2.04
R15K	3.27

Variant	protein stability index
R15F	1.85
R15N	2.47
R15E	1.95
R15L	2.23
R15C	1.57
R15P	2.54
R15T	1.91
R15M	3.55
R15H	2.18
R15Y	2.69
R15G	1.98
R15I	2.43
S17Y	3.4
S17M	3.93
S17F	3.51
S17T	3.45
S17N	3.93
S17H	3.52
S17A	2.85
S17E	2.01
S17Q	2.89
S17R	4.26
S17L	2.43
S17V	2.86
S17W	4.02
S17P	2.6

Variant	protein stability index
S17I	3.18
S17K	2.81
S17C	2.83
S17D	2.58
S17G	3.1
G21I	2.93
G21K	3.15
G21L	2.91
G21V	2.39
G21S	1.41
G21P	2.95
G21F	3.47
G21D	2.47
G21Q	2.8
G21R	3.2
G21N	2.33
G21C	3.2
G21M	3.38
G21W	4.06
G21Y	3.37
G21H	3.13
G21A	2.69
G21E	2.11
G21T	2.53
R16K	2.46
R16D	2.15

Variant	protein stability index
R16F	1.64
R16A	1.87
R16N	2.26
R16V	2.23
R16H	2.35
R16L	1.62
R16P	1.63
R16C	1.97
R16W	2.33
R16I	1.96
R16T	2.2
R16Q	2.97
R16E	2.86
R16M	1.9
R16G	2.52
R16S	1.77
R12G	2.16
R12F	2.18
R12W	2.44
R12P	2.39
R12D	1.86
R12A	2.13
R12E	2.58
R12S	2.1
R12I	1.95
R12T	2.27

Variant	protein stability index
R12M	2.03
R12L	1.48
R12K	3.19
R12H	2.51
R12N	2.52
R12Q	2.31
R12Y	2.58
R12V	2.11
R14F	2.83
R14T	2.42
R14K	3.03
R14H	2.44
R14V	2.22
R14L	2.27
R14W	3.15
R14D	2.31
R14N	2.89
R14M	2.13
R14I	2.41
R14Q	2.25
R14S	2.19
R14P	2.08
R14E	2.66
R14C	1.85
R14Y	2.02
R14A	1.88

Variant	protein stability index
R14G	2.62
H13K	3.53
H13T	2.7
H13L	2.18
H13M	3.25
H13P	2.96
H13A	2.16
H13C	2.29
H13D	2.16
H13N	2.55
H13Y	2.52
H13W	1.93
H13S	2.52
H13Q	2.48
H13I	2.78
H13V	2.16
H13G	2.46
H13E	2.21
H13F	2.64
R18S	1.83
R18E	1.8
R18K	2.46
R18Y	2.36
R18T	2.32
R18L	2.22
R18C	2.21

Variant	protein stability index
R18W	3.29
R18P	2.37
R18G	2.54
R18I	2.23
R18M	2.89
R18Q	2.45
R18N	1.96
R18F	2.73
R18A	2.06
R18V	2.29
S11Q	2.65
S11H	3.12
S11M	2.13
S11I	2.56
S11R	2.53
S11P	3.1
S11A	2.97
S11V	2.35
S11E	2.02
S11T	2.86
S11Y	2.99
S11L	1.92
S11G	2.58
S11W	2.3
S11F	2.76
S11K	3.18

Variant	protein stability index
S11C	2.95
S11N	2.21
S11D	2.57
E19K	4.05
E19T	3.81
E19P	4.39
E19L	3.42
E19S	3.65
E19N	3.95
E19W	4.71
E19V	4.11
E19R	4.55
E19F	4.17
E19C	4.35
E19I	3.96
E19M	4.15
E19Y	3.94
E19A	3.59
E19D	3.87
E19G	4.06
E19Q	3.2
E19H	4.09
R20L	2.45
R20C	2.72
R20V	2.22
R20S	2.24

Variant	protein stability index
R20K	2.62
R20T	2.39
R20P	2.65
R20M	2.3
R20N	2.11
R20G	2.21
R20F	3.04
R20A	2.47
R20D	2.56
R20Q	2.79
R20H	2.44
R20I	2.21
R20W	2.85
R20E	2.27
R20Y	2.3
R10V	2.52
R10G	3.15
R10Y	2.12
R10C	2.45
R10D	2.75
R10W	2.85
R10F	2.31
R10N	2.63
R10L	3.03
R10T	2.41
R10K	2.58

Variant	protein stability index
R10Q	2.7
R10H	3.62
R10P	2.82
R10I	2.64
R10A	2.9
R10M	3.16
R10E	3.36
R10S	3
P22R	1.97
P22V	3.03
P22M	2.54
P22I	2.2
P22C	2.8
P22K	2.19
P22G	2.54
P22A	2.82
P22S	2.21
P22F	2.62
P22W	3.26
P22H	2.65
P22E	2.05
P22T	2.82
P22N	2.54
P22D	2.8
P22Q	2.65
P22L	2.37

Variant	protein stability index
P22Y	2.39
R24E	2.32
R24G	3.26
R24F	2.8
R24V	2.46
R24Q	2.14
R24S	2.46
R24M	2.85
R24I	2.68
R24T	1.81
R24K	2.62
R24A	2.02
R24H	2.67
R24N	2.46
R24C	1.92
R24P	3.48
R24Y	2.35
R24L	1.96
R24W	2.18
R24D	1.9

Variants of: B2
Experiment: as above
Conditions: c terminus: a fixed tail appended

Variant	protein stability index
G3S	2.42
G3V	1.64
G3T	2.23
G3F	3.48
G3E	2.58
G3P	4.02
G3L	2.28
G3D	2.77
G3M	1.42
G3A	1.95
G3R	2.09
G3C	2.51
G3H	2.71
G3I	1.59
G3K	3.02
G3N	2.26
F1M	4.68
F1V	4.15
F1G	4.59
F1S	4.38
F1H	4.49
F1W	2.77
F1T	4.8
F1Q	4.33
F1R	4.42
F1N	4.38
F1D	4.78

Variant	protein stability index
F1P	4.64
F1E	5.02
F1K	4.3
F1A	3.92
F1Y	1.97
F1I	4.02
F1C	3.57
F1L	3.99
L2D	5.03
L2Q	1.95
L2V	2.64
L2S	1.76
L2I	2.44
L2C	2.18
L2Y	3.44
L2T	3.09
L2A	1.66
L2W	2.4
L2M	1.95
L2F	2.93
L2G	2.72
L2N	3.15
L2H	1.33
L2P	1.72
L2E	4.5
L2K	4.07
L2R	4.48
